Laboratory results from US20250034222A1 (MONASH UNIVERSITY, published 2025).

Molecular target: the molecule itself
Assay: SEC

B1: Wild-type IL-38 (residues 3-152), untagged after TEV cleavage of the N-terminal His10 tag (ligand)
chain: SLPMARYYIIKYADQKALYTRDGQLLVGDPVADNCCAEKICILPNRGLARTKVPIFLGIQGGSRCLACVETEEGPSLQLEDVNIEELYKGGEEATRFTFFQSSSGSAFRLEAAAWPGWFLCGPAEPQQPVQLTKESEPSARTKFYFEQSW
notes: Uncut protein was removed for the Peak A pool; also called IL-38 (WT); WT (D51A) IL-38
binding result: binds
